Assay results as given in patent US20190262327A1, “COMBINATION OF A BACE INHIBITOR AND AN ANTIBODY OR ANTIGEN-BINDING FRAGMENT FOR THE TREATMENT OF A DISORDER ASSOCIATED WITH THE ACCUMULATION OF AMYLOID BETA” (ASTRAZENECA AB, priority 2016, published 2019).
Entries after “also recorded” stand apart in the source; their conditions may differ.

What was measured:
[1] = tested on: Amyloid plaques; assay: In vitro immunohistochemistry on Tg2576 mouse brain sections
From the text: Briefly, the lead antibodies were screened on human Alzheimer's Disease brain sections and Tg2576 mouse brain sections to identify anti-Amyloid beta 1-42 antibodies that bound to Amyloid plaques in vitro.
In these experiments, human brain tissue was isolated from the frontal cortex of two individuals with severe Alzheimer's Disease (ApoE genotype 3/3, Braak stage 6 and ApoE genotype 4/3, Braak stage 5). As a control, equivalent tissue was isolated from one non-dementia individual (ApoE genotype 3/3, Braak stage 1). Mouse brain tissue was isolated from Tg2576 mice at an age of 15 months (2 mice) and 22 months (2 mice). Antibodies were tested at concentrations of 2, 5, 10 and 20 ug ml^−1.

[2] = target: T1, Amyloid beta 1-42 peptide (Rattus norvegicus, UniProt P08592); assay: Free Amyloid beta 1-42 peptide in rat CSF (immunoprecipitation + ELISA); assay type: in vivo; conditions: for reduction of free Amyloid beta 1-42 peptide in CSF vs vehicle control: rats, 168 h after second dose
T1 construct: Measurement of free Amyloid beta 1-42 peptide in rat CSF; from tissue; host or cells: CSF and brain homogenate of Sprague-Dawley rats
T1 sequence (P08592 672-713 limits assumed): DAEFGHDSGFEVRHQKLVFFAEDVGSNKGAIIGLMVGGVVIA
Method: Eight-week old male albino Harlan Sprague-Dawley rats (n=8-12) received a single dose of Abet0380-GL IgG1-TM antibody by intravenous injection with a dosing vehicle of 25 mM Histidine, 7% Sucrose, 0.02% p80 surfactant, pH 6.0 at 5 ml/kg. Dosing solutions were made just before dosing. Animals were anaesthetized at the time indicated and cerebrospinal fluid (CSF) was aspirated from the cistema magna. CSF samples were centrifuged for 10 minutes at approximately 3000× g at 4° C. within 20 minutes of sampling to remove cells or debris. Samples were then frozen on dry ice and stored at −70° C. for subsequent analysis.
Measurement of free Amyloid beta 1-42 peptide in rat CSF was conducted using immunoprecipitation to remove Abet0380-GL bound Amyloid beta 1-42 peptide, followed by analysis by a commercial ELISA kit obtained from Invitrogen. Briefly, a solution of protein A beads (Dynabeads® Protein A; Invitrogen, UK; cat: 100-02D) was added to a 96 well non-skirted plate (polypropylene 0.2 ml; VWR International, UK; cat: 10732-4828) and washed twice with TBST (50 mM TBS; Sigma, UK; cat: T6664 plus 0.1% Tween20) using a magnet (DynaMag™ 96 side; Invitrogen, UK; cat: 123.31 D) to separate the beads from the solution. Thawed rat CSF samples (40 μl) were added to each well and incubated at […] with tilt rotation for 1 hour. The beads were then pelleted using the magnet and 30 μl of immunoprecipitated CSF samples were transferred to a 96 well plate from the ELISA kit (mouse Amyloid beta (1-42) colorimetric ELISA kit; Invitrogen, UK; cat: KMB3441) with 70 μl of the Standard Diluent Buffer already added (supplemented with protease inhibitor; Roche, UK; cat: 11836153001). Calibration standard samples were added to the plate in duplicate and the plate was incubated for 2 hours at room temperature with shaking. The plate was washed 4 times with 400 µl of wash buffer, 100 μl of the detection antibody solution was added to each well and the plate was incubated for 1 hour at room temperature with shaking. Again, the plate was washed 4 times with 400 μl of wash buffer, 100 μl of the secondary antibody working solution was added to each well and the plate was incubated for 30 minutes at room temperature with shaking. Finally, the plate was washed 4 times with 400 μl of wash buffer, 100 μl of stabilized Chromogen was added to each well and the plate was incubated for 30 minutes at room temperature in the dark. To stop the reaction, 100 μl of Stop Solution was added to each well and the plate was read within 2 hours at an absorbance of 450 nm. Single CSF samples were analyzed and data analysis was performed using Prism 4 (GraphPad, USA) with one-way ANOVA on log transformed data without adjustment for multiple comparisons.
To further investigate the effect of the Abet0380-GL IgG1-TM antibody in vivo, rats were administered weekly doses of 0.25, 0.5, 1, 5 or 10 mg/kg over 14 days. Animals were euthanized 168 hours after the second dose to measure levels of free Amyloid beta 1-42 peptide in CSF as well as total Amyloid beta 1-42 or 1-40 peptides in brain tissue.
The ability of antibody Abet0144-GL to sequester amyloid beta 1-42 was investigated in a PK-PD study in normal rats. Rats were intravenously administered Abet0144-GL (10 or 40 mg/kg) or vehicle weekly for 2 weeks (on days 0 and 7), and sacrificed a week after the 2nd dose. […] Free and total amyloid beta 1-42 levels were measured using assays described above.

[3] = target: T2, human Amyloid beta 1-42 peptide (Homo sapiens, UniProt P05067); assay: Surface Plasmon Resonance binding kinetics of IgGs (BIAcore T-100); conditions: IgG1-TM captured on protein G; 1:1 Langmuir fit
T2 construct: biotinylated human Amyloid beta 1-42 peptide (rpeptide, USA; cat: A1117); purchased rPeptide, USA A1117; host or cells: synthetic peptide
T2 sequence (P05067 672-713): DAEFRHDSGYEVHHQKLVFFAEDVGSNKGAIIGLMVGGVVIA
Method: Surface Plasmon Resonance was used to analyse the binding kinetics of the affinity-optimized IgGs (section 1.8) and their germlined counterparts (section 1.9). Briefly, the BIAcore T-100 (GE Healthcare, UK) biosensor instrument was used to assess the kinetic parameters of the interaction between each test IgG and synthetically-produced human Amyloid beta 1-42 peptide. These experiments were performed essentially as described by Karsson et al. (Karlsson et al., 1991).
The affinity of binding between each test IgG and human Amyloid beta 1-42 was estimated using assays in which each antibody was non-covalently captured by a protein G surface that was itself amine linked to a proprietary CM5 chip. The chip surface was regenerated between cycles by paired 40 second injections of 10 mM Glycine pH 2.0 to remove ligand and bound antibody. The test antibody was then reapplied for each peptide injection.
A series of dilutions of synthetic human Amyloid beta 1-42 peptide (0.063-1024 nM) were sequentially passed over the antibody surface for a sufficient amount of time to observe sensorgrams that could be fitted to an appropriate binding model with confidence. […]
The validity of the data was assessed using the calculated Chi^2 value, with an acceptable value being under 2 RU^2. […]

B1: Abet0380-GL IgG1-TM: germlined Abet0380; VH SEQ ID NO: 524, VL SEQ ID NO: 533; human IgG1 triple mutant format (antibody, listed as Homo sapiens, V domains shown)
VH: EVQLLESGGGLVQPGGSLRLSCAASMGNFNYQTMWWVRQAPGKGLEWVSVIGKTNENIAYADSVKGRFTISRDNSKNTLYLQMNSLRAEDTAVYYCAREWMDHSRPYYYYGMDVWGQGTLVTVSS
VL: SYELTQPPSVSVSPGQTASITCSGHNLEDKFASWYQQKPGQSPVLVIYRDDKRPSGIPERFSASNSGHTATLTISGTQAMDEADYYCSSQDTVTRVFGGGTKLTVL
modifications: human IgG1 triple mutant constant region; /note=“Abet0380-GL”
notes: germlined Abet0380; human IgG1 triple mutant format
core plaques (CP) staining score ([1]; Tg2576 brain sections): 4
plaque recognition score ([1]; Tg2576 mouse brain sections, 22 month old mice, 20 μg/ml): 4
effect on free Amyloid beta 1-42 in CSF ([2]; Sprague-Dawley rats, 0.25-10 mg/kg weekly over 14 days): dose-dependent decrease; also recorded: dose-dependent reduction
reduction of free Amyloid beta 1-42 peptide in CSF vs vehicle control ([2]; 0.25 mg/kg weekly over 14 days, not statistically significant): 14%
reduction of free Amyloid beta 1-42 peptide in CSF vs vehicle control ([2]; 0.5 mg/kg weekly over 14 days): 47%
reduction of free Amyloid beta 1-42 peptide in CSF vs vehicle control ([2]; 1 mg/kg weekly over 14 days): 61%
association rate constant (ka) [3]: 952000 M⁻¹ s⁻¹
dissociation rate constant (kd) [3]: 0.000307 s⁻¹
